Source: patent US20110263679

Tested on: T1, purified recombinant His-tagged C12ORF48 protein
T1 sequence: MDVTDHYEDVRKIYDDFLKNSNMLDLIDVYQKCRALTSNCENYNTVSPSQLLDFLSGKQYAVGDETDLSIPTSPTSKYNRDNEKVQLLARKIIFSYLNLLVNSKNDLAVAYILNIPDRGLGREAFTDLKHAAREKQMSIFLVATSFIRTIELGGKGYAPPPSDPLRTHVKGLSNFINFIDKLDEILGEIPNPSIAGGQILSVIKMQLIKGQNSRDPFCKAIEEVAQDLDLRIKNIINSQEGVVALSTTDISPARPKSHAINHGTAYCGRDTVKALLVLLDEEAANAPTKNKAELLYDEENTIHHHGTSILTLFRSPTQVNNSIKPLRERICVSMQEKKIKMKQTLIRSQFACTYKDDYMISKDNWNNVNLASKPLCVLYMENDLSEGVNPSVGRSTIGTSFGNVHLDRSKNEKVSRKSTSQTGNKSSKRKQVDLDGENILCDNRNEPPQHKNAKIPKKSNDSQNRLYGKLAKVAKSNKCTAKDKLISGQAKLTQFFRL

recombinant human PARP1 (Alexis) was tested, and the “PARP1 automodification, incorporation of [32P] NAD+, SDS-PAGE autoradiography” value was “PARP1 automodification was strongly enhanced in the presence of C12ORF48 protein compared with in the absence of C12ORF48 protein”.
